According to IntAct's records for PubMed 12600646:

Target: RNF216, Q9NWF9-3
Sequence (Q9NWF9 379-866): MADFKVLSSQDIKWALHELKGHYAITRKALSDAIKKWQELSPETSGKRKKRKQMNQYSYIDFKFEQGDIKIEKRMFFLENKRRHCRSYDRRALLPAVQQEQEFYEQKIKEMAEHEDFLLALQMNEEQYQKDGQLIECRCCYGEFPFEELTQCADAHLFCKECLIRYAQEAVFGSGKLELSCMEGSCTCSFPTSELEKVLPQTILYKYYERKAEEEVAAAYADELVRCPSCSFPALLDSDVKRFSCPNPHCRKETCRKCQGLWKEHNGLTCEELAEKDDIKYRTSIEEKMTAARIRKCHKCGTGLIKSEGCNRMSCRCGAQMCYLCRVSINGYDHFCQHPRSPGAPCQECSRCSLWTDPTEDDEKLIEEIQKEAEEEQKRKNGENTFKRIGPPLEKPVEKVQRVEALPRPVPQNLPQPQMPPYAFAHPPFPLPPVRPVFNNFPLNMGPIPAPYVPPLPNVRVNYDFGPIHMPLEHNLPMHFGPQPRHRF

## Virion infectivity factor (Human immunodeficiency virus type 1 group M subtype B (isolate NY5) (HIV-1)), P12504 Q105A;L106A;I107A
  effect of a mutation on the interaction: disrupting interaction
